According to article PMC11957692, “TRIB3 mediates vascular calcification by facilitating self-ubiquitination and dissociation of Smurf1 in chronic kidney disease” (The Journal of Clinical Investigation, 2025):

Key:
[1] = biological target: T1, recombinant Smurf1 protein (UniProt Q9HCE7 1-757); assay: SPR
T1 chain: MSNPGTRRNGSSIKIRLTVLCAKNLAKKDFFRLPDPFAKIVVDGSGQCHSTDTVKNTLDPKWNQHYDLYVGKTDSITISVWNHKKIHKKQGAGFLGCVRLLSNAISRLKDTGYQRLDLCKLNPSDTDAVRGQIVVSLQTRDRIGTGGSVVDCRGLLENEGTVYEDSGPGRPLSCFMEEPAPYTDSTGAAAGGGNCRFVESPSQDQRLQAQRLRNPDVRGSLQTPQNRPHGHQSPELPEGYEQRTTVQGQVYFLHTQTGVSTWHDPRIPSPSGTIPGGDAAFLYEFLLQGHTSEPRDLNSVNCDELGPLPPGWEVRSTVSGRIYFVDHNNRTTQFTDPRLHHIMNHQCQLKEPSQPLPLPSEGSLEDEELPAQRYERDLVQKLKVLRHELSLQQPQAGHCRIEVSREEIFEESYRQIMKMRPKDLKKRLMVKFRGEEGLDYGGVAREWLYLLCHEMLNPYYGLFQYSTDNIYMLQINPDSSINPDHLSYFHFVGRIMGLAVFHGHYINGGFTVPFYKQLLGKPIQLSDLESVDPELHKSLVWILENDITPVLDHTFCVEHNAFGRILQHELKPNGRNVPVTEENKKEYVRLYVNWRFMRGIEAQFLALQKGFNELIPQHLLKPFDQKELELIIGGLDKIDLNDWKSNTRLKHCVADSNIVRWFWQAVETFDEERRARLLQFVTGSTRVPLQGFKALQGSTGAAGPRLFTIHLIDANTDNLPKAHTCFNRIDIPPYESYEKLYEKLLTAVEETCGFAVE

[2] = biological target: T2, recombinant Smurf1 protein (UniProt Q9HCE7 1-757); assay: SPR; recombinant Smurf1 immobilised on a CM5 sensor chip by amine coupling; TRIB3 protein applied at 31 nM to 8 uM; Biacore T200, kinetics model; details: both partners purified
T2 construct: Smad ubiquitination regulatory factor 1 (Smurf1), recombinant protein immobilised on a CM5 chip for SPR; also called Smad ubiquitination regulatory factor 1; E3 ubiquitin-protein ligase Smurf1

koff [1]: 0.0015 s⁻¹ | Kd [2]: 1030 nM
B1: recombinant TRIB3 protein (natural protein, UniProt Q96RU7 1-358, looked up)
chain: MRATPLAAPAGSLSRKKRLELDDNLDTERPVQKRARSGPQPRLPPCLLPLSPPTAPDRATAVATASRLGPYVLLEPEEGGRAYQALHCPTGTEYTCKVYPVQEALAVLEPYARLPPHKHVARPTEVLAGTQLLYAFFTRTHGDMHSLVRSRHRIPEPEAAVLFRQMATALAHCHQHGLVLRDLKLCRFVFADRERKKLVLENLEDSCVLTGPDDSLWDKHACPAYVGPEILSSRASYSGKAADVWSLGVALFTMLAGHYPFQDSEPVLLFGKIRRGAYALPAGLSAPARCLVRCLLRREPAERLTATGILLHPWLRQDPMPLAPTRSHLWEAAQVVPDGLGLDEAREEEGDREVVLYG
notes: Tribbles homolog 3 (TRIB3), recombinant protein flowed over the chip in SPR; also called tribbles homolog 3
